Experiments:
Assay in all cases: SPR
Settings in all cases: remark: other sources report otherwise
[1] = biological target: CIS-Elo B/C + F3 (human), Q9NSE2
SPR [2] = substrate: CIS R78G-EloB/C (human), Q9NSE2
SPR [3] = substrate: CIS R78G, F116L-EloB/C + F3 (human), Q9NSE2
SPR [4] = substrate: CIS R78G, F116L-EloB/C (human), Q9NSE2
SPR [5] = substrate: CIS F116L-EloB/C (human), Q9NSE2
[6] = biological target: SOCS2 FL + F3 (human), O14508
SPR [7] = substrate: CIS F74L-EloB/C + F3 (human), Q9NSE2
SPR [8] = substrate: CIS F74, F116L-EloB/C (human), Q9NSE2
SPR [9] = substrate: CIS F74, F116L-EloB/C + F3 (human), Q9NSE2
SPR [10] = substrate: CIS R78G-EloB/C + F3 (human), Q9NSE2

SOCS2 FL + F3 (human), O14508, sequence (O14508 whole entry, chain 1 of 3): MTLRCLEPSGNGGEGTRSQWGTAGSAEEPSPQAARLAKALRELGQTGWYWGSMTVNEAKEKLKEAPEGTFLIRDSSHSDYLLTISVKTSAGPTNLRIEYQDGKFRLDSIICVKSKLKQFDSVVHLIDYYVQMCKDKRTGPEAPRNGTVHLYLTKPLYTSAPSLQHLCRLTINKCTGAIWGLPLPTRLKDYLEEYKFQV
SOCS2 FL + F3 (human), O14508, sequence (Q15370 whole entry, chain 2 of 3, further chain): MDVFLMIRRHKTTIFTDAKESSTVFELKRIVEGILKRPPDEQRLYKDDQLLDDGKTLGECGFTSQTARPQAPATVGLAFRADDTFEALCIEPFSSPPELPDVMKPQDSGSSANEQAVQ
SOCS2 FL + F3 (human), O14508, sequence (Q15369 17-112, chain 3 of 3, further chain): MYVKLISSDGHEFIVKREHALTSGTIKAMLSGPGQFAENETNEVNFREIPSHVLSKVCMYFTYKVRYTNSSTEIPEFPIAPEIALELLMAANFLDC

B1: GHR pY595 peptide (peptide)
chain: PVPDYTSIHIV
modifications: here or on the partner: phosphotyrosine at 595
IC50 [1]: 4.3 µM
IC50 (SPR [2]): 6.7 µM
IC50 (SPR [3]): 8.8 µM
IC50 (SPR [4]): 20 µM
IC50 (SPR [5]): 6.6 µM
IC50 [6]: 0.2 µM
IC50 (SPR [7]): 4.2 µM
IC50 (SPR [8]): 7 µM
IC50 (SPR [9]): 3.7 µM
IC50 (SPR [10]): 2 µM

— PMC8640019
